Results from US20250121063A1, “COMPOSITIONS OF […] RESISTANCE TO P[…] RELATED METHODS OF USE” (priority 2023, published 2025).
“Also recorded” adds a separate entry of the source.

Legend:
P14 CD8+CD45.2+ T-cells = type: cell-based, mouse
[1] = tested on: LCMV (Lymphocytic choriomeningitis) clone 13; conditions: mouse, in vivo
B16-OVA melanoma = test: Adoptive transfer of shRNA-transduced OT-1 cells into mice bearing B16-OVA melanoma; type: in vivo, mouse; conditions: compared with shFF or HBSS
From the text: Referring to FIG. 1, this indicates a normal mouse CD8+ treated with a construct expressing: control short hairpin RNA (shFF) or short hairpin RNA against mouse PTGIR gene. OT-1 is an anti-OVA T cell receptor that recognizes ovalbumin epitope (OVA) antigen variant E1 ([…]) restricted by H2-Kb. Mouse T cells that constitutively express OT-1 (“OT-1 cells”) were transduced with a construct expressing short hairpin RNA against mouse Ptgir gene (“shPTGIR”) or control short hairpin RNA (“shFF”; against firefly luciferase).
At day 0, mice were inoculated with […] B16-OVA melanoma cells (these cells constitutively express the OVA protein and present OVA epitopes on cell surface MHC). On Day 7 mice received (i.v.) 1E6 adoptively transferred gene modified OT-1 cells or Hank's buffered saline solution (HBSS).
At day 0, mice inoculated with B16-OVA melanoma. On Day 7 mice received adoptively transferred, gene modified CD8+ cells on Day 7 or saline (HBSS).
Referring to FIG. 2, this example was performed in the same way as Example 2.

B1: shPTGIR (nucleic acid)
DNA: AGCACGAGAGGAUGAAGUUUACUAGUGAAGCCACAGAUGUAGUAAACUUCAUCCUCUCGUGCC
modifications: expressed or natural sequence
P14 CD8+CD45.2+ T-cells
  IFNγ and TNFα response to antigen stimulation: capable of responding to antigen stimulation
[1]
  LAG-3 expression: lower LAG-3 expression
  absolute abundance of transduced CD45.2 T-cells: higher absolute abundance; also recorded: greater absolute numbers
  expansion of adoptively transferred cells (CD45.2+): highly significant expansion
  percentage of Tim-3: lower percentage of Tim-3
  phenotypic markers of exhaustion: reduced phenotypic markers of exhaustion
B16-OVA melanoma; 1E6 gene modified OT-1 cells i.v. on Day 7 after B16-OVA inoculation
  tumor growth: reduced tumor growth
B16-OVA melanoma; mice with B16-OVA melanoma, OT-1 cells transferred Day 7
  survival: increased survival
